From PMC12313861

Molecular target: ComFB signaling protein (Slr1970) (Synechocystis)
Experiment: SEC-MALS; size exclusion chromatography coupled to multiangle light scattering of ComFB; species of 40.5 kDa against theoretical monomer mass 20.4 kDa

- stoichiometry N: 2
Substance: ComFB signaling protein (Slr1970) (natural protein)
